Target: T1, human epithelial cell adhesion molecule (EpCAM) on CHO–EpCAM cells (Homo sapiens, UniProt P16422)
T1 construct: BC014785.1, expressed on the surface of CHO cells; source: CHO-X cells, lentiviral transduction, doxycycline-inducible, on the cell surface (clone SP1D12)
Test: flow cytometry on cells; self-labeling: CHO–EpCAM cells transduced with the HA-tagged scFv, cultured 3 days with or without doxycycline, stained with anti-HA-PE
Settings: partners not purified

T1 sequence (P16422 24-314): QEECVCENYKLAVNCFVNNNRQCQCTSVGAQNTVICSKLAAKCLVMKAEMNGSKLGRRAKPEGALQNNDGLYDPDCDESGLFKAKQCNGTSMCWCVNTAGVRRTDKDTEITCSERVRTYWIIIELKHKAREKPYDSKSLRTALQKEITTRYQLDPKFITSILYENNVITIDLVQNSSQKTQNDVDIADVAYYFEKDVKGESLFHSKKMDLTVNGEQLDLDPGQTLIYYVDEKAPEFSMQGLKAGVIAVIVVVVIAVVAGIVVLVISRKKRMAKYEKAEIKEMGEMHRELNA

B1: known anti-EpCAM scFv with a C-terminal HA tag (scFv, V domains shown)
VH: VQLLEQSGAELVRPGTSVKISCKASGYAFTNYWLGWVKQRPGHGLEWIGDIFPGSGNIHYNEKFKGKATLTADKSSSTAYMQLSSLTFEDSAVYFCARLRNWDEPMDYWGQGTTVTVSS
VL: ELVMTQSPSSLTVTAGEKVTMSCKSSQSLLNSGNQKNYLTWYQQKPGQPPKLLIYWASTRESGVPDRFTGSGSGTDFTLTISSVQAEDLAVYYCQNDYSYPLTFGAGTKLEIK
notes: Cloned into the pSF lentivector used for the scFv library; also called control anti-EpCAM scFv; source: CHO–EpCAM cells, lentiviral transduction, secreted by the same cells that carry the target; not shown: HA, C-terminal, kept
fold increase in self-labeling signal (with against without doxycycline): > 100 fold

From PMC7939478, “Development of a novel mammalian display system for selection of antibodies against membrane proteins” (The Journal of Biological Chemistry, 2020)
